Assay [1] has as its target PD-L1 (human) (UniProt Q9NZQ7). Nature of the assay: cell-based or functional assay.
For assay [2], the target named is CD28 (human) (UniProt P10747). Description: cell-based or functional assay.

Chain of PD-L1 (human) (Q9NZQ7 19-290): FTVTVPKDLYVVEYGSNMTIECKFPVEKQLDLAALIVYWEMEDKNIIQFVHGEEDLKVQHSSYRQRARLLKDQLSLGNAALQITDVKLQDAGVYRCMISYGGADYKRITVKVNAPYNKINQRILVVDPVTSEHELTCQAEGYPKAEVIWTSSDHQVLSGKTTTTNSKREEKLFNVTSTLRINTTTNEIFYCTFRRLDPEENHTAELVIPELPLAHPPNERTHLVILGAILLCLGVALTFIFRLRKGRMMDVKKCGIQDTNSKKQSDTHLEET

Take “CD80 IgV-Fc E35D/T41S/N48T (from UniProt P33681 35-141) (Fc fusion)”: the Jurkat/IL2 + CHO/OKT3/PD-L1 reporter assay, RLU at CD80 Conc 5.0 nM in assay [1] is 1140 RLU.
Still for that read-out and setting: as for “CD80 IgV-Fc Q27H/E35D/M47I (from UniProt P33681 35-141) (Fc fusion)”, the figure is 1830 RLU.
With “CD80 IgV-Fc (inert) H18V/A26D/E35D/M47V/V68M/A71G/D90G (from UniProt P33681 35-141) (Fc fusion)”, the RLU, Jurkat/IL2 + CHO/OKT3/PD-L1 Reporter Assay, CD80 Conc 5.0 nM in assay [1] is 771 RLU.
On to “CD80 IgV-Fc (inert) H18V/A26N/E35D/M47V/V68M/A71G (from UniProt P33681 35-141) (Fc fusion)”, for which the RLU, Jurkat/IL2 + CHO/OKT3/PD-L1 Reporter Assay, CD80 Conc 5.0 nM in assay [1] stood at 985 RLU.
On the same count and under the same terms, in the case of “CD80 IgV-Fc (inert) H18C/A26P/E35D/M47L/V68M/A71G (from UniProt P33681 35-141) (Fc fusion)” it was 936 RLU; in that of “CD80 IgV-Fc (inert) H18V/A26K/E35D/M47L/V68M/A71G (from UniProt P33681 35-141) (Fc fusion)”, 957 RLU.
The same measure, in the same setting: as for “CD80 IgV-Fc (inert) H18A/A26N/E35D/M47L/V68M/A71G/D90G (from UniProt P33681 35-141) (Fc fusion)”, the figure is 1050 RLU.
For “CD80 IgV-Fc E35D/M47V/L85M/R94Q (from UniProt P33681 35-141) (Fc fusion)”, the Jurkat/IL2 + CHO/OKT3/PD-L1 reporter assay, RLU at CD80 Conc 5.0 nM in assay [1] is 466 RLU.
On to “CD80 IgV-Fc M43I/M47L/A71G (from UniProt P33681 35-141) (Fc fusion)”, for which the Jurkat/IL2 + CHO/OKT3/PD-L1 reporter assay, RLU at CD80 Conc 5.0 nM in assay [1] was 1640 RLU.
On the same count and under the same terms, in the case of “CD80 IgV-Fc E35D/D46E/L85M (from UniProt P33681 35-141) (Fc fusion)” it was 1410 RLU.
For the substance “CD80 IgV-Fc (inert) H18R/A26P/E35D/D46N/M47V/V68M/A71G/D90P (from UniProt P33681 35-141) (Fc fusion)”, the RLU, Jurkat/IL2 + CHO/OKT3/PD-L1 Reporter Assay, CD80 Conc 5.0 nM in assay [1] worked out at 972 RLU.
Take “CD80 IgV-Fc E35D/M43I/M47L/L85M (from UniProt P33681 35-141) (Fc fusion)”: the Jurkat/IL2 + CHO/OKT3/PD-L1 reporter assay, RLU at CD80 Conc 5.0 nM in assay [1] is 1430 RLU.
In the case of “CD80 IgV-Fc (inert) H18Y/A26P/E35D/M47I/V68M/A71G (from UniProt P33681 35-141) (Fc fusion)”, the RLU, Jurkat/IL2 + CHO/OKT3/PD-L1 Reporter Assay, CD80 Conc 5.0 nM in assay [1] amounted to 761 RLU.
Consider “CD80 IgV-Fc E35D/N48K/L72V (from UniProt P33681 35-141) (Fc fusion)”, for which, in assay [1], the Jurkat/IL2 + CHO/OKT3/PD-L1 reporter assay, RLU at CD80 Conc 5.0 nM came out at 1730 RLU.
Still for that read-out and setting: as for “CD80 IgV-Fc E35D/D46E/A91G (from UniProt P33681 35-141) (Fc fusion)”, the figure is 395 RLU; as for “CD80 IgV-Fc E35D/D46E (from UniProt P33681 35-141) (Fc fusion)”, 1960 RLU.
On to “CD80 IgV-Fc (inert) H18F/A26P/E35D/M47I/V68M/A71G/D90G (from UniProt P33681 35-141) (Fc fusion)”, for which the RLU, Jurkat/IL2 + CHO/OKT3/PD-L1 Reporter Assay, CD80 Conc 5.0 nM in assay [1] turned out to be 926 RLU.
On the same count and under the same terms, in the case of “CD80 IgV-Fc (inert) H18Y/A26Q/E35D/M47T/V68M/A71G/D90G (from UniProt P33681 35-141) (Fc fusion)” it was 994 RLU.
As for “CD80 IgV-Fc E35D/M47V/I61V/L85M (from UniProt P33681 35-141) (Fc fusion)”, in assay [1], the Jurkat/IL2 + CHO/OKT3/PD-L1 reporter assay, RLU at CD80 Conc 5.0 nM came to 1180 RLU.
“variant CD80 IgV-Fc (inert) A26E/E35D/M43I/M47L/L85Q/K86E/R94W (Fc fusion)”: in assay [2], the Fold Increase over WT CD80-IgV-Fc, same assay, 50 nM was 0.9 fold and the IL-2-luciferase RLU, Jurkat + K562/OKT3/PD-L1 aAPC, 50 nM amounted to 498 RLU.

The values are drawn from patent US20210130436A1.
